Patent US20140087995A1 (published 2014)
Numbered stars: 1 amine (or outer) side, 2 acyl side, 3 side chain; on linkers, the order of the positions; unused ones are H or OH. Bridge positions count the residues as written; N and C are the ends. Side chains are listed from the residue outwards. Ends that are not written are not given here. * marks the point of attachment. C20 diacid = O=C(O)CCCCCCCCCCCCCCCCCCC(=O)*; γGlu = O=C(O)[C@H](CCC(=O)[*:2])N[*:1]

T1: human amylin receptor (amylin 3(a) receptor: human calcitonin receptor co-expressed with RAMP-3) (human, UniProt P30988 25-474; O60896 24-148, limits assumed)
T1 sequence (looked up) 1: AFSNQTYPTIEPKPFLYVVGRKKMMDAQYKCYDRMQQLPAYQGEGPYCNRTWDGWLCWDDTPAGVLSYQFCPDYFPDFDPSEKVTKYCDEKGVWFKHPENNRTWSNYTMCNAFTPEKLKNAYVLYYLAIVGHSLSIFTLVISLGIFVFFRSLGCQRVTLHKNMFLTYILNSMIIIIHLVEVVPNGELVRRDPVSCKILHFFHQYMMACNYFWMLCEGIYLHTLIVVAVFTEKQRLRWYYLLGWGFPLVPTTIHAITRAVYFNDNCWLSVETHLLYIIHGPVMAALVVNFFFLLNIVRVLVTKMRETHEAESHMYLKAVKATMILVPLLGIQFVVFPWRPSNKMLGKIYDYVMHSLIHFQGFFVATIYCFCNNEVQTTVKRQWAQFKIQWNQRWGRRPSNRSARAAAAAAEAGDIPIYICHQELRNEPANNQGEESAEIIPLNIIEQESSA
T1 sequence (looked up) 2: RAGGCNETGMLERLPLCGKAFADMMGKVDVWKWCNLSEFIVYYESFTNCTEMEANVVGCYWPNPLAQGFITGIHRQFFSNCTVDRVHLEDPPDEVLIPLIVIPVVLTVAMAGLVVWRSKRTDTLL

T2: human calcitonin receptor (human, UniProt P30988 25-474)
T2 sequence (looked up): T1 sequence (looked up) 1

B1: N^ε1-[(4S)-4-carboxy-4-(19-carboxynonadecanoylamino)butanoyl]-[Arg17,Pro21,Pro27,His35]-h-amylin (peptide)
peptide: K([γGlu-C20 diacid])CNTATCATQRLANFLRHSSPNFGAIPSSTNVGSHTY-NH2
modifications: disulfide 2-7; N-terminus assumed
SMILES: CC[C@H](C)[C@H](NC(=O)[C@H](C)NC(=O)CNC(=O)[C@H](Cc1ccccc1)NC(=O)[C@H](CC(N)=O)NC(=O)[C@@H]1CCCN1C(=O)[C@H](CO)NC(=O)[C@H](CO)NC(=O)[C@H](Cc1c[nH]cn1)NC(=O)[C@H](CCCNC(=N)N)NC(=O)[C@H](CC(C)C)NC(=O)[C@H](Cc1ccccc1)NC(=O)[C@H](CC(N)=O)NC(=O)[C@H](C)NC(=O)[C@H](CC(C)C)NC(=O)[C@H](CCCNC(=N)N)NC(=O)[C@H](CCC(N)=O)NC(=O)[C@@H](NC(=O)[C@H](C)NC(=O)[C@@H]1CSSC[C@H](NC(=O)[C@@H](N)CCCCNC(=O)CC[C@H](NC(=O)CCCCCCCCCCCCCCCCCCC(=O)O)C(=O)O)C(=O)N[C@@H](CC(N)=O)C(=O)N[C@@H]([C@@H](C)O)C(=O)N[C@@H](C)C(=O)N[C@@H]([C@@H](C)O)C(=O)N1)[C@@H](C)O)C(=O)N1CCC[C@H]1C(=O)N[C@@H](CO)C(=O)N[C@@H](CO)C(=O)N[C@H](C(=O)N[C@@H](CC(N)=O)C(=O)N[C@H](C(=O)NCC(=O)N[C@@H](CO)C(=O)N[C@@H](Cc1c[nH]cn1)C(=O)N[C@H](C(=O)N[C@@H](Cc1ccc(O)cc1)C(N)=O)[C@@H](C)O)C(C)C)[C@@H](C)O
notes: also called compound 60
B2: N^ε1-[(4S)-4-carboxy-4-(19-carboxynonadecanoylamino)butanoyl]-[His14,Arg17,Pro21,Pro27,Pro31]-h-amylin (peptide)
peptide: K([γGlu-C20 diacid])CNTATCATQRLAHFLRHSSPNFGAIPSSTPVGSNTY-NH2
modifications: disulfide 2-7; N-terminus assumed
SMILES: CC[C@H](C)[C@H](NC(=O)[C@H](C)NC(=O)CNC(=O)[C@H](Cc1ccccc1)NC(=O)[C@H](CC(N)=O)NC(=O)[C@@H]1CCCN1C(=O)[C@H](CO)NC(=O)[C@H](CO)NC(=O)[C@H](Cc1c[nH]cn1)NC(=O)[C@H](CCCNC(=N)N)NC(=O)[C@H](CC(C)C)NC(=O)[C@H](Cc1ccccc1)NC(=O)[C@H](Cc1c[nH]cn1)NC(=O)[C@H](C)NC(=O)[C@H](CC(C)C)NC(=O)[C@H](CCCNC(=N)N)NC(=O)[C@H](CCC(N)=O)NC(=O)[C@@H](NC(=O)[C@H](C)NC(=O)[C@@H]1CSSC[C@H](NC(=O)[C@@H](N)CCCCNC(=O)CC[C@H](NC(=O)CCCCCCCCCCCCCCCCCCC(=O)O)C(=O)O)C(=O)N[C@@H](CC(N)=O)C(=O)N[C@@H]([C@@H](C)O)C(=O)N[C@@H](C)C(=O)N[C@@H]([C@@H](C)O)C(=O)N1)[C@@H](C)O)C(=O)N1CCC[C@H]1C(=O)N[C@@H](CO)C(=O)N[C@@H](CO)C(=O)N[C@H](C(=O)N1CCC[C@H]1C(=O)N[C@H](C(=O)NCC(=O)N[C@@H](CO)C(=O)N[C@@H](CC(N)=O)C(=O)N[C@H](C(=O)N[C@@H](Cc1ccc(O)cc1)C(N)=O)[C@@H](C)O)C(C)C)[C@@H](C)O
notes: also called compound 62
B3: N^ε1-[(4S)-4-carboxy-4-(19-carboxynonadecanoylamino)butanoyl]-[His14,Arg17,Pro21,Pro27,Arg34]-h-amylin (peptide)
peptide: K([γGlu-C20 diacid])CNTATCATQRLAHFLRHSSPNFGAIPSSTNVGRNTY-NH2
modifications: disulfide 2-7; N-terminus assumed
SMILES: CC[C@H](C)[C@H](NC(=O)[C@H](C)NC(=O)CNC(=O)[C@H](Cc1ccccc1)NC(=O)[C@H](CC(N)=O)NC(=O)[C@@H]1CCCN1C(=O)[C@H](CO)NC(=O)[C@H](CO)NC(=O)[C@H](Cc1c[nH]cn1)NC(=O)[C@H](CCCNC(=N)N)NC(=O)[C@H](CC(C)C)NC(=O)[C@H](Cc1ccccc1)NC(=O)[C@H](Cc1c[nH]cn1)NC(=O)[C@H](C)NC(=O)[C@H](CC(C)C)NC(=O)[C@H](CCCNC(=N)N)NC(=O)[C@H](CCC(N)=O)NC(=O)[C@@H](NC(=O)[C@H](C)NC(=O)[C@@H]1CSSC[C@H](NC(=O)[C@@H](N)CCCCNC(=O)CC[C@H](NC(=O)CCCCCCCCCCCCCCCCCCC(=O)O)C(=O)O)C(=O)N[C@@H](CC(N)=O)C(=O)N[C@@H]([C@@H](C)O)C(=O)N[C@@H](C)C(=O)N[C@@H]([C@@H](C)O)C(=O)N1)[C@@H](C)O)C(=O)N1CCC[C@H]1C(=O)N[C@@H](CO)C(=O)N[C@@H](CO)C(=O)N[C@H](C(=O)N[C@@H](CC(N)=O)C(=O)N[C@H](C(=O)NCC(=O)N[C@@H](CCCNC(=N)N)C(=O)N[C@@H](CC(N)=O)C(=O)N[C@H](C(=O)N[C@@H](Cc1ccc(O)cc1)C(N)=O)[C@@H](C)O)C(C)C)[C@@H](C)O
notes: also called compound 85
B4: N^ε1-[(4S)-4-carboxy-4-(19-carboxynonadecanoylamino)butanoyl]-[His14,Arg17,Pro21,Pro27,His35]-h-amylin (peptide)
peptide: K([γGlu-C20 diacid])CNTATCATQRLAHFLRHSSPNFGAIPSSTNVGSHTY-NH2
modifications: disulfide 2-7; N-terminus assumed
SMILES: CC[C@H](C)[C@H](NC(=O)[C@H](C)NC(=O)CNC(=O)[C@H](Cc1ccccc1)NC(=O)[C@H](CC(N)=O)NC(=O)[C@@H]1CCCN1C(=O)[C@H](CO)NC(=O)[C@H](CO)NC(=O)[C@H](Cc1c[nH]cn1)NC(=O)[C@H](CCCNC(=N)N)NC(=O)[C@H](CC(C)C)NC(=O)[C@H](Cc1ccccc1)NC(=O)[C@H](Cc1c[nH]cn1)NC(=O)[C@H](C)NC(=O)[C@H](CC(C)C)NC(=O)[C@H](CCCNC(=N)N)NC(=O)[C@H](CCC(N)=O)NC(=O)[C@@H](NC(=O)[C@H](C)NC(=O)[C@@H]1CSSC[C@H](NC(=O)[C@@H](N)CCCCNC(=O)CC[C@H](NC(=O)CCCCCCCCCCCCCCCCCCC(=O)O)C(=O)O)C(=O)N[C@@H](CC(N)=O)C(=O)N[C@@H]([C@@H](C)O)C(=O)N[C@@H](C)C(=O)N[C@@H]([C@@H](C)O)C(=O)N1)[C@@H](C)O)C(=O)N1CCC[C@H]1C(=O)N[C@@H](CO)C(=O)N[C@@H](CO)C(=O)N[C@H](C(=O)N[C@@H](CC(N)=O)C(=O)N[C@H](C(=O)NCC(=O)N[C@@H](CO)C(=O)N[C@@H](Cc1c[nH]cn1)C(=O)N[C@H](C(=O)N[C@@H](Cc1ccc(O)cc1)C(N)=O)[C@@H](C)O)C(C)C)[C@@H](C)O
notes: also called compound 66
B5: N^ε1-[(4S)-4-carboxy-4-(19-carboxynonadecanoylamino)butanoyl]-[His14,Arg17,Pro21,Pro27,His34]-h-amylin (peptide)
peptide: K([γGlu-C20 diacid])CNTATCATQRLAHFLRHSSPNFGAIPSSTNVGHNTY-NH2
modifications: disulfide 2-7; N-terminus assumed
SMILES: CC[C@H](C)[C@H](NC(=O)[C@H](C)NC(=O)CNC(=O)[C@H](Cc1ccccc1)NC(=O)[C@H](CC(N)=O)NC(=O)[C@@H]1CCCN1C(=O)[C@H](CO)NC(=O)[C@H](CO)NC(=O)[C@H](Cc1c[nH]cn1)NC(=O)[C@H](CCCNC(=N)N)NC(=O)[C@H](CC(C)C)NC(=O)[C@H](Cc1ccccc1)NC(=O)[C@H](Cc1c[nH]cn1)NC(=O)[C@H](C)NC(=O)[C@H](CC(C)C)NC(=O)[C@H](CCCNC(=N)N)NC(=O)[C@H](CCC(N)=O)NC(=O)[C@@H](NC(=O)[C@H](C)NC(=O)[C@@H]1CSSC[C@H](NC(=O)[C@@H](N)CCCCNC(=O)CC[C@H](NC(=O)CCCCCCCCCCCCCCCCCCC(=O)O)C(=O)O)C(=O)N[C@@H](CC(N)=O)C(=O)N[C@@H]([C@@H](C)O)C(=O)N[C@@H](C)C(=O)N[C@@H]([C@@H](C)O)C(=O)N1)[C@@H](C)O)C(=O)N1CCC[C@H]1C(=O)N[C@@H](CO)C(=O)N[C@@H](CO)C(=O)N[C@H](C(=O)N[C@@H](CC(N)=O)C(=O)N[C@H](C(=O)NCC(=O)N[C@@H](Cc1c[nH]cn1)C(=O)N[C@@H](CC(N)=O)C(=O)N[C@H](C(=O)N[C@@H](Cc1ccc(O)cc1)C(N)=O)[C@@H](C)O)C(C)C)[C@@H](C)O
notes: also called compound 81

Tests used:
[1] = target: T1, human amylin receptor (amylin 3(a) …); assay: cell-based or functional assay
[2] = target: T2, human calcitonin receptor; assay: cell-based or functional assay

Row | Binder | hAmylin-R funct. EC50 [1] [nM] | hCTR funct. EC50 [2] [nM] | Ratio hCT/hAmylin funct. [1]
1 | B1 | 0.351 | 5.36 | –
2 | B2 | 0.044 | 0.539 | –
3 | B3 | 0.146 | 3.88 | 26.6
4 | B4 | 0.027 | 0.542 | –
5 | B5 | 0.13 | 1.73 | –
